From article PMC7591906, “pHLIP ICG for delineation of tumors and blood flow during fluorescence-guided surgery” (Scientific Reports, 2020)
“Also recorded” adds a separate entry of the source. Peptide text beside a SMILES is read from it. * marks the point of attachment. X1 = CC1(C)C(/C=C/C=C/C=C/C=C2/N(CCCCCC(=O)NCCN3C(=O)CC(*)C3=O)c3ccc4ccccc4c3C2(C)C)=[N+](CCCCS(=O)(=O)[O-])c2ccc3ccccc3c21

Tests used:
[1] = system: 86 enzyme and receptor targets; test: Safety pharmacology profiling, enzyme and receptor binding panel (Eurofins Panlabs); settings: 2 µM; all targets except progesterone receptor B
Description: The pHLIP ICG enzyme binding assays were performed by Eurofins Panlabs, Inc. according to standard assay protocols. […] The most significant inhibitory effect of pHLIP ICG was observed on progesterone B and was followed by an additional study to identify IC50 values, which were determined by a non-linear least square regression analysis using MathIQTM (ID Business Solutions Ltd., UK). The Ki values were calculated by the equation from Cheng and Prusoff [Cheng, Y., Prusoff, W.H., Biochem. Pharmacol. 22:3099-3108, 1973] using the observed IC50 of pHLIP ICG , the concentration of radioligand employed in the assay, and the historical values for the KD of the ligand (Eurofins Panlabs data). The Hill coefficient (nH), defining the slope of the competitive binding curve, was calculated using MathIQTM. […]

[2] = system: Salmonella typhimurium strains (TA1535, TA1537, TA98, TA100 and TA102); test: In vitro bacterial reverse mutation test; assay type: cell-based; settings: up to 5000 µg/plate, with and without S9 mix
Description: The objective of this study performed at CRL was to determine the potential genotoxicity of pHLIP ICG using the bacterial reverse mutation test.
Salmonella typhimurium strains (TA1535, TA1537, TA98, TA100 and TA102) were treated with pHLIP ICG at a range of concentrations up to 5000 µg/plate (the standard limit dose for this assay), in the presence and absence of a supplemented rat liver fraction (S9 mix), using the plate incorporation version of the bacterial reverse mutation test.
Bacteria were incubated with standard positive controls, and the response of the various bacterial strains to these agents confirmed the sensitivity of the test system and the activity of the S9 mix.

[3] = 7-day repeat i.v. toxicity in B6D2F1 mice (GLP); assay type: in vivo; settings: 13.6 mg/kg/day i.v. for 7 days, incidence and severity decreasing over time
Description: The purpose of this GLP study performed at MSK was to assess the acute and delayed toxicity of a repeat administration of pHLIP ICG in mice. The pHLIP ICG was administered for 7 consecutive days.
Throughout the study, body weights, clinical signs, clinical pathology (hematology and clinical chemistry), and histopathology were collected.

## CC(C)C[C@H](NC(=O)[C@H](Cc1ccc(O)cc1)NC(=O)[C@H](C)NC(=O)[C@H](CCCNC(=N)N)NC(=O)[C@H](Cc1c[nH]c2ccccc12)NC(=O)[C@@H]1CCCN1C(=O)[C@H](CC(N)=O)NC(=O)[C@H](CCC(N)=O)NC(=O)[C@H](CC(=O)O)NC(=O)[C@H](CC(=O)O)NC(=O)[C@H](CSC1CC(=O)N(CCNC(=O)CCCCCN2/C(=C/C=C/C=C/C=C/C3=[N+](CCCCS(=O)(=O)[O-])c4ccc5ccccc5c4C3(C)C)C(C)(C)c3c2ccc2ccccc32)C1=O)NC(=O)[C@H](C)N)C(=O)N[C@@H](CC(=O)O)C(=O)N[C@@H](CC(C)C)C(=O)N[C@@H](CC(C)C)C(=O)N[C@@H](Cc1ccccc1)C(=O)N1CCC[C@H]1C(=O)N[C@H](C(=O)N[C@@H](CC(=O)O)C(=O)N[C@H](C(=O)N[C@@H](CC(C)C)C(=O)N[C@@H](CC(C)C)C(=O)N[C@@H](CC(C)C)C(=O)N[C@@H](CC(=O)O)C(=O)N[C@@H](CC(C)C)C(=O)N[C@@H](CC(C)C)C(=O)N[C@@H](Cc1c[nH]c2ccccc12)C(=O)N[C@@H](C)C(=O)O)[C@@H](C)O)[C@@H](C)O (stereo partly shown) [pHLIP ICG] (H-AC(X1)DDQNPWRAYLDLLFPTDTLLLDLLWA-OH)
[1]
  Inhibitory effect on 86 enzyme and receptor targets: No inhibitory effect was observed
[2]
  Toxicity to the bacteria: non-toxic to the bacteria at the levels tested
[2]; plate incorporation
  Mutagenicity, revertant colonies: did not show any evidence of genotoxic activity; also recorded: negative for the induction of mutagenicity
[3]
  Toxicity finding: may be associated with germ cell degeneration in males
